Reference: patent US6432692 (WISCONSIN ALUMNI RESEARCH FOUNDATION, dated 2002)

T1: full length aryl hydrocarbon receptor (AHR) translated in reticulocyte lysate (pSportAHR) (UniProt P30561 1-805, limits assumed)
T1 construct: also called Ah receptor; radiolabeled AHR
T1 sequence (looked up): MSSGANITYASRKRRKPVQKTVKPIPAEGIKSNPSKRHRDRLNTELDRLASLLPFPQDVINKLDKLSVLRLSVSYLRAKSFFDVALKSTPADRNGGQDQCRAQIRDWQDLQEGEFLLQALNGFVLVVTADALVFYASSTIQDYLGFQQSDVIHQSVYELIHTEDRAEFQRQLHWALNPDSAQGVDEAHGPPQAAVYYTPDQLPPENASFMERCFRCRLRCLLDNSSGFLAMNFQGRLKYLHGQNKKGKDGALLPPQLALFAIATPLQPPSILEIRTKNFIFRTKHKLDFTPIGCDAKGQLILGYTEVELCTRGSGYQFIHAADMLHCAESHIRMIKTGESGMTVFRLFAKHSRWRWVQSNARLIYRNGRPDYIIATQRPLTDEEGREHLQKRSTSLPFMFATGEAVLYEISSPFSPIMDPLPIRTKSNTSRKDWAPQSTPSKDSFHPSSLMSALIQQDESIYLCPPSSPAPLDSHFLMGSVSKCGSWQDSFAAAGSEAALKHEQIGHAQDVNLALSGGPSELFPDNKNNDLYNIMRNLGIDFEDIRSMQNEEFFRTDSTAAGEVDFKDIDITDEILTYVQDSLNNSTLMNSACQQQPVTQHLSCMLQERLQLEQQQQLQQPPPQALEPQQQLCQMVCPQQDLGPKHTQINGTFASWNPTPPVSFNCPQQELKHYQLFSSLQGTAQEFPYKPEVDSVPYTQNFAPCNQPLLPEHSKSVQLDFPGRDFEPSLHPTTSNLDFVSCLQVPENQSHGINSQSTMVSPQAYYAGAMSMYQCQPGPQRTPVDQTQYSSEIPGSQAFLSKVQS


Legend:
[1] = biological target: T2, Hsp90; assay: co-immunoprecipitation of 35S labeled Hsp90 with T7-agarose, bands quantified with a phosphoimager
T2 construct: also called radiolabeled Hsp90; 35S labeled Hsp90
Protocol: (§1) The bacterial expression of FKBP52 and ARA9 was confirmed by SDS-PAGE followed by both Coomassie stain and western blot analysis with an anti-T7 peptide antibody (Novagen). Immunoprecipitations of complexes with either AHR- or Hsp90 were performed in MENG buffer as above, using anti-T7 agarose (Novagen). The complexes were then precipitated and analyzed by SDS-PAGE and autoradiography.
(§2) Figure 3A: FIG. 3A (Top). AHR was translated in reticulocyte lysates in the presence of ^35S-methionine. Labeled proteins were then incubated in the presence of T7 tagged ARA9, T7 tagged FKBP52 or untransformed BL21 extract and complexes were separated and visualized as above. "Input" lanes represent 25% of total protein (AHR or Hsp90) used in experiments. Bottom: The bands radioactivity present in the AHR or Hsp90 bands was quantified using a phosphoimager to make comparisons of relative coimmunoprecipitation. The bars represent the means from three independent experiments. The error bars indicate the standard error of the mean. Figure 3B: FIG. 3B. Hsp90 was used in a similar experiment described in FIG. 3A.
(§3) Specificity of ARA9 for AHR: The structural similarity between ARA9 and FKBP52 led us to compare the relative capacity of these two factors to bind AHR. […] The AHR-ARA9 or AHR-FKBP52 associations were determined by coimmunoprecipitation with T7-agarose. […]

[2] = biological target: T1, full length aryl hydrocarbon receptor …; assay: co-immunoprecipitation of 35S-labeled AHR with T7-agarose, bands quantified with a phosphoimager
Protocol: as §1, §2, §3

Binder	capacity to interact with Hsp90 relative to ARA9 [1]	efficiency at precipitating AHR relative to FKBP52 [2]
T7 tagged FKBP52 expressed in bacteria (pET17b-FKBP52, PL947) (other) MASMTGGQQMGMTAEEMKAAESGAQSAPLPLEGVDISPKQDEGVLKVIKREGTGTETPMIGDRVFVHYTGWLLDGTKFDSSLDRKDKFSFDLGKGEVIKAWDIAVATMKVGELCRITCKPEYAYGSAGSPPKIPPNATLVFEVELFEFKGEDLTDDEDGGIIRRIRTRGEGYARPNDGAIVEVALEGYYKDRLFDQRELRFEVGEGESLDLPCGLEKAIQRMEKGEHSILYLKPSYAFGNAGKEKFQIPPYAELKYEVHLKSFEKAKESWEMSSEEKLEQSAIVKERGTVYFKEGKYKQALLQYKKIVSWLEYESSFSSEEVQKAQALRLASHLNLAMCHLKLQAFSAAVESCNKALELDSNNEKGLFRRGEAHLAVNDFDLARADFQKVLQLYPSNKAAKAQLAVCQQRIRKQIAREKKLYANMFERLAEEENKAKAEVAAGDHPMDTEMKDERNDVAGSQSQVETEA	4 fold	
T7 tagged full length ARA9 expressed in bacteria (pET17b-ARA9, PL799) (other, Expressed in BL21(DE3); also called T7-tagged ARA9; FL) MASMTGGQQMGMADIIARLREDGIQKRVIQEGRGELPDFQDGTKATFHYRTLHSDDEGTVLDDSRARGKPMELIIGKKFKLPVWETIVCTMREGEIAQFLCDIKHVVLYPLVAKSLRNIAVGKDPLEGQRHCCGVAQMREHSSLGHADLDALQQNPQPLIFHMEMLKVESPGTYQQDPWAMTDEEKAKAVPLIHQEGNRLYREGHVKEAAAKYYDAIACLKNLQMKEQPGSPEWIQLDQQITPLLLNYCQCKLVVEEYYEVLDHCSSILNKYDDNVKAYFKRGKAHAAVWNAQEAQADFAKVLELDPALAPVVSRELRALEARIRQKDEEDKARFRGIFSH		~4 times
